For one substance, time constant of the decay of hME Ca2+ current on perfusion of 10 μM MICU1EF results are on record in publication doi:10.1101/2021.11.15.468501.

The target of this test is human MCU-EMRE fusion protein (hME) (human).

“MICU1EF (MICU1 with D231A, E242K, D421A, E432K), N-terminally MBP-tagged (from UniProt Q9BPX6 34-476) (natural protein)” yielded a time constant of the decay of hME Ca2+ current on perfusion of 10 μM MICU1EF of 44 s.
